This note sets out measurements from patent publication US20220112276A1 (Janssen / Centocor, published 2022).

In assay [1] the target is T1, cynomolgus monkey pIgR extracellular domain (cynomolgus monkey, UniProt A0A2K5WMU9 19-638).
T1 construct: extracellular domain
The experiment in a line: SPR, VHH captured by anti-Fc, ECD analyte. A digest of the protocol: (§1)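 Single-cycle kinetics: ECD analyte from 30 nM, 3-fold series, low to high, with 30 min off-rate monitoring, over VHH captured at 0.5 ug/ml (~200-300 RU). HBSP plus 100 ug/ml BSA at 30 μL/min. Reference cell and buffer blank subtracted; global 1:1 Langmuir fit gave kon, koff, KD.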

Assay [2] deals with T2, human pIgR extracellular domain (ECD) (human, UniProt P01833 19-638).
T2 construct: Bought from R&D Systems (Cat 2717-PG-050); also called hpIgR ECD
Put plainly: SPR, VHH captured by anti-Fc, ECD analyte. A digest of the protocol:
as §1

T2 sequence (P01833 other isoform, or with tags, fused parts or gaps): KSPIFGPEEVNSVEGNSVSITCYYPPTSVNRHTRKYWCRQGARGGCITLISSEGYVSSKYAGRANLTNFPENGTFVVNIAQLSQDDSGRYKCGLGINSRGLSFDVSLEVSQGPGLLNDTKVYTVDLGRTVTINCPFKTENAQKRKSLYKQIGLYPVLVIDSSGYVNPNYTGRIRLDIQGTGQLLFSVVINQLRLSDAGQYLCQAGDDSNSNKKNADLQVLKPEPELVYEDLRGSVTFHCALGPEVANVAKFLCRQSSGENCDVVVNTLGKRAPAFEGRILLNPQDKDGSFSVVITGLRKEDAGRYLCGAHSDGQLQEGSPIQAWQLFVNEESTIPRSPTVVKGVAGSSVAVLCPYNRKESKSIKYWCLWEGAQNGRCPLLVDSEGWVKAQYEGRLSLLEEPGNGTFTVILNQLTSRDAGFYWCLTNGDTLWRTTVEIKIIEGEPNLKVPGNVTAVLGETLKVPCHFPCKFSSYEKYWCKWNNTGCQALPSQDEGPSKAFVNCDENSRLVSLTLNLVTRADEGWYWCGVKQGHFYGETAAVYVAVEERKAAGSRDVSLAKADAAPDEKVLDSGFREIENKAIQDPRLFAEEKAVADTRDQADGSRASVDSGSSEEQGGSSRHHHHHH
T1 sequence (A0A2K5WMU9 entry or part of it): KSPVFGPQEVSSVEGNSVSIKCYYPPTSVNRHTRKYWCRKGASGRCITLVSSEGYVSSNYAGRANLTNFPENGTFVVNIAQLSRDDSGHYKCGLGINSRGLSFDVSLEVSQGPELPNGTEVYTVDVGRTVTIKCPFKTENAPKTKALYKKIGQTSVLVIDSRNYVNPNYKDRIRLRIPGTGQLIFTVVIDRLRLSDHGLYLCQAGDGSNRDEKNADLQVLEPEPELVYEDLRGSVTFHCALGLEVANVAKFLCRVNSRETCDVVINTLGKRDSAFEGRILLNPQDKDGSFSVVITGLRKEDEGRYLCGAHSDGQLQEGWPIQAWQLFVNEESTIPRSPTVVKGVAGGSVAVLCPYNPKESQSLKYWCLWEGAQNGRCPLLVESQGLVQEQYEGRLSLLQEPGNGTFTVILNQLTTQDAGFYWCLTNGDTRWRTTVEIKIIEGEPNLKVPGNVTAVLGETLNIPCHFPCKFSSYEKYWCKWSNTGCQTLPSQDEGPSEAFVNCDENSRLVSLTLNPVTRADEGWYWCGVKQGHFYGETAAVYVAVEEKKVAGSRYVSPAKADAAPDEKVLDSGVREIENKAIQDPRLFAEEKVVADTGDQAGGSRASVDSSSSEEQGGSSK

B1: 03D01R3 VHH Mono-Fc (Fc fusion)
chain: EVQLVESGGGLVQPGGSLRLSCAASGFTFRTYYMGWFRQAPGKEREFVGVTRSSDDVTYYADSVKGRFTISRDNAKNTVYLQMSRLKPEDTAVYYCAAKPVPITRYSFPQIGEEYDYWGQGTLVTVSSSPAPELLGGPSVFLFPPKPKDTLMISRTPEVTCVVVDVSHEDPEVKFNWYVDGVEVHNAKTKPREEQYNSTYRVVSVLTVLHQDWLNGKEYKCKVSNKALPAPIEKTISKAKGQPREPQVYTKPPSREEMTKNQVSLSCLVKGFYPSDIAVEWESNGQPENNYKTTVPVLDSDGSFRLASYLTVDKSRWQQGNVFSCSVMHEALHNHYTQKSLSLSPGK
In general, Kd refers to the concentration at which binding is half-saturated. As to B1, the Kd in assay [1] was found to be 5.51 nM; in assay [2], 2.26 nM.

B2: 01C09R3 VHH Mono-Fc (Fc fusion)
chain: EVQLVESGGGLVQAGGSLRLSCAASGFTFRTYYMGWFRQAPGKEREFVGVTRSSDDVTYYADSVKGRFTISRDNAKNTVYLQMSRLKPEDTAVYYCAAKPVPITRYSFPQIGEEYDYWGQGTLVTVSSSPAPELLGGPSVFLFPPKPKDTLMISRTPEVTCVVVDVSHEDPEVKFNWYVDGVEVHNAKTKPREEQYNSTYRVVSVLTVLHQDWLNGKEYKCKVSNKALPAPIEKTISKAKGQPREPQVYTKPPSREEMTKNQVSLSCLVKGFYPSDIAVEWESNGQPENNYKTTVPVLDSDGSFRLASYLTVDKSRWQQGNVFSCSVMHEALHNHYTQKSLSLSPGK
Regarding B2, the equilibrium dissociation constant (Kd) stood at 5.73 nM in assay [1] and 2.18 nM in assay [2].

B3: 02B09R3 VHH Mono-Fc (Fc fusion)
chain: EVQLVESGGGLVQPGGSLRLSCAASGFTFRTYYMGWFRRAPGKEREFVGVTRSSDDVTYYADSVKGRFTISRDNAKDTVYLQMSRLKPEDTAVYYCAAKPVPITRYSFPQIGEEYDYWGQGTLVTVSSSPAPELLGGPSVFLFPPKPKDTLMISRTPEVTCVVVDVSHEDPEVKFNWYVDGVEVHNAKTKPREEQYNSTYRVVSVLTVLHQDWLNGKEYKCKVSNKALPAPIEKTISKAKGQPREPQVYTKPPSREEMTKNQVSLSCLVKGFYPSDIAVEWESNGQPENNYKTTVPVLDSDGSFRLASYLTVDKSRWQQGNVFSCSVMHEALHNHYTQKSLSLSPGK
With B3, the values for the Kd in assay [1] and in assay [2] were 9.51 nM and 2.46 nM, respectively.

B4: 01F04R3LS VHH Mono-Fc (Fc fusion)
chain: EVQLVESGGGLVQAGGSLRLSCAASGRTFSRYAMGWFRQAPGKEREFVAAIAWSGGAIYYADFVKGQFTISRDNAKNTVDLEMNRLKPEDTAVYYCGSTRDPRVGDKKFYDYWGQGTQVTVSSSPAPELLGGPSVFLFPPKPKDTLMISRTPEVTCVVVDVSHEDPEVKFNWYVDGVEVHNAKTKPREEQYNSTYRVVSVLTVLHQDWLNGKEYKCKVSNKALPAPIEKTISKAKGQPREPQVYTKPPSREEMTKNQVSLSCLVKGFYPSDIAVEWESNGQPENNYKTTVPVLDSDGSFRLASYLTVDKSRWQQGNVFSCSVMHEALHNHYTQKSLSLSPGK
B4: the results for the Kd in assay [1] and in assay [2] were 236 nM and 23.8 nM, respectively.

B5: 01H02R3LS VHH Mono-Fc (Fc fusion)
chain: QVQLVESGGGLVQPGGSLRLSCAASGSIFSASVMGWYRQGPGKQREFVARISPGGVTHYADSVKGRFTISKDNAKNTVTLQMNSLKPEDTAVYYCNADRFGFEVYWGQGTLVTVSSSPAPELLGGPSVFLFPPKPKDTLMISRTPEVTCVVVDVSHEDPEVKFNWYVDGVEVHNAKTKPREEQYNSTYRVVSVLTVLHQDWLNGKEYKCKVSNKALPAPIEKTISKAKGQPREPQVYTKPPSREEMTKNQVSLSCLVKGFYPSDIAVEWESNGQPENNYKTTVPVLDSDGSFRLASYLTVDKSRWQQGNVFSCSVMHEALHNHYTQKSLSLSPGK
In the case of B5, the Kd turned out to be 20.6 nM in assay [1] and 3.24 nM in assay [2].

B6: 03D12R3 VHH Mono-Fc (Fc fusion)
chain: QVQLVESGGGLVQAGGSLRLSCAASGRTFSSYAMGWFRQAPGKEREFAAVITWNGGSTHYADSVKGRFTISRDNAKNTVYLQMNSLKPEDTAVYYCAADPMNSPYWGQGTQVTVSSSPAPELLGGPSVFLFPPKPKDTLMISRTPEVTCVVVDVSHEDPEVKFNWYVDGVEVHNAKTKPREEQYNSTYRVVSVLTVLHQDWLNGKEYKCKVSNKALPAPIEKTISKAKGQPREPQVYTKPPSREEMTKNQVSLSCLVKGFYPSDIAVEWESNGQPENNYKTTVPVLDSDGSFRLASYLTVDKSRWQQGNVFSCSVMHEALHNHYTQKSLSLSPGK
Take B6: the Kd in assay [1] was 0.905 nM; in assay [2] it was 0.606 nM.

B7: 01C02R3 VHH Mono-Fc (Fc fusion)
chain: QVQLVESGGGLVQAGGSLRLSCAASGLSFSSYTMGWFRQVPGKERELISAIHWSGGPTFYSNSVKGRFTISRDNAKDTVYLQMNSLKPEDTAVYYCTAEPVGSMISPDWTYWGQGTLVTVSSSPAPELLGGPSVFLFPPKPKDTLMISRTPEVTCVVVDVSHEDPEVKFNWYVDGVEVHNAKTKPREEQYNSTYRVVSVLTVLHQDWLNGKEYKCKVSNKALPAPIEKTISKAKGQPREPQVYTKPPSREEMTKNQVSLSCLVKGFYPSDIAVEWESNGQPENNYKTTVPVLDSDGSFRLASYLTVDKSRWQQGNVFSCSVMHEALHNHYTQKSLSLSPGK
With B7, the values for the Kd in assay [1] and in assay [2] were 8.43 nM and 1.23 nM, respectively.

B8: 01E02R3LS VHH Mono-Fc (Fc fusion)
chain: EVQLVESGGGLVETGGSLRLSCAASGRTESTYTMAWFRQAPGKERERVATISFSGSTTTYLASVQGRFTISRDGAKNTIFLQMNGLKPEDTAVYYCALDTRRRVGSSPRFYDYWGQGTLVTVSSSPAPELLGGPSVFLFPPKPKDTLMISRTPEVTCVVVDVSHEDPEVKFNWYVDGVEVHNAKTKPREEQYNSTYRVVSVLTVLHQDWLNGKEYKCKVSNKALPAPIEKTISKAKGQPREPQVYTKPPSREEMTKNQVSLSCLVKGFYPSDIAVEWESNGQPENNYKTTVPVLDSDGSFRLASYLTVDKSRWQQGNVFSCSVMHEALHNHYTQKSLSLSPGK
Take B8: the Kd in assay [1] amounted to 0.018 nM; in assay [2], 0.6 nM.

B9: 01D02R3LS VHH Mono-Fc (Fc fusion)
chain: QVQLVESGGGLVQAGDSLTLSCAASGRSVGFDTYGMAWFRQAPGKEREFVASIAYNGETTSYADSVQGRFTVTRENAKNTIALRMNGLKPDDTAVYYCAAAQYYLTGTSFPAKFWGQGTLVTVSSSPAPELLGGPSVFLFPPKPKDTLMISRTPEVTCVVVDVSHEDPEVKFNWYVDGVEVHNAKTKPREEQYNSTYRVVSVLTVLHQDWLNGKEYKCKVSNKALPAPIEKTISKAKGQPREPQVYTKPPSREEMTKNQVSLSCLVKGFYPSDIAVEWESNGQPENNYKTTVPVLDSDGSFRLASYLTVDKSRWQQGNVFSCSVMHEALHNHYTQKSLSLSPGK
In the case of B9, the Kd in assay [1] amounted to 0.885 nM; in assay [2], 0.809 nM.

B10: 01G07R3 VHH Mono-Fc (Fc fusion)
chain: QVQLVESGGGLVQAGDSLRLSCAASGRTLSFDTYAMGWFRQAPGKEREFVASIDWSGGTTYYADSVKGRFTVTRDNAKNTVTLRMNSLKPADTAVYYCAAAQYYRSGTSFPANYWGQGTLVTVSSSPAPELLGGPSVFLFPPKPKDTLMISRTPEVTCVVVDVSHEDPEVKFNWYVDGVEVHNAKTKPREEQYNSTYRVVSVLTVLHQDWLNGKEYKCKVSNKALPAPIEKTISKAKGQPREPQVYTKPPSREEMTKNQVSLSCLVKGFYPSDIAVEWESNGQPENNYKTTVPVLDSDGSFRLASYLTVDKSRWQQGNVFSCSVMHEALHNHYTQKSLSLSPGK
On to B10, for which the values for the Kd in assay [1] and in assay [2] were 40.8 nM and 1.18 nM, respectively.

B11: 01E03R2 VHH Mono-Fc (Fc fusion)
chain: EVQLVESGGGLVQAGGSLRLSCAASGRTFSVYGMGWFRQAPGQERAFVAAISWSDGSTYYADSVKGRFTISRDNAKNTMYLQMNSLKPEDTAVYFCAADLTGWGLDADVSEYDYWGQGTLVTVSSSPAPELLGGPSVFLFPPKPKDTLMISRTPEVTCVVVDVSHEDPEVKFNWYVDGVEVHNAKTKPREEQYNSTYRVVSVLTVLHQDWLNGKEYKCKVSNKALPAPIEKTISKAKGQPREPQVYTKPPSREEMTKNQVSLSCLVKGFYPSDIAVEWESNGQPENNYKTTVPVLDSDGSFRLASYLTVDKSRWQQGNVFSCSVMHEALHNHYTQKSLSLSPGK
For the molecule B11, the Kd came to 373 nM in assay [1] and 6.1 nM in assay [2].

B12: 01G04R3 VHH Mono-Fc (Fc fusion)
chain: QVQLVESGGGLVQAGGSLRLSCAASGRTFSVYGMGWFRQAPGQERAFVAAISWSDGSTYYADSVKGRFTISRDNAKNTMYLQMNSLKPEDTAVYFCAADLTGWGLDADVSEYDYWGQGTQVTVSSSPAPELLGGPSVFLFPPKPKDTLMISRTPEVTCVVVDVSHEDPEVKFNWYVDGVEVHNAKTKPREEQYNSTYRVVSVLTVLHQDWLNGKEYKCKVSNKALPAPIEKTISKAKGQPREPQVYTKPPSREEMTKNQVSLSCLVKGFYPSDIAVEWESNGQPENNYKTTVPVLDSDGSFRLASYLTVDKSRWQQGNVFSCSVMHEALHNHYTQKSLSLSPGK
For B12, the Kd in assay [1] was 399 nM; in assay [2], 6.22 nM.

B13: 02B11R3 VHH Mono-Fc (Fc fusion)
chain: EVQLVESGGGLVQAGGSLRLSCAASGRTFSPYGMGWFRQTPGKERAFVAAVDWNDGSTYYSDSVKGRFTISRDNAKNTVYLQMNSLKSEDTAVYYCAADLTGWGLDADVSEYDYWGQGTLVTVSSSPAPELLGGPSVFLFPPKPKDTLMISRTPEVTCVVVDVSHEDPEVKFNWYVDGVEVHNAKTKPREEQYNSTYRVVSVLTVLHQDWLNGKEYKCKVSNKALPAPIEKTISKAKGQPREPQVYTKPPSREEMTKNQVSLSCLVKGFYPSDIAVEWESNGQPENNYKTTVPVLDSDGSFRLASYLTVDKSRWQQGNVFSCSVMHEALHNHYTQKSLSLSPGK
As to B13, the results for the Kd in assay [1] and in assay [2] were 101 nM and 0.858 nM, respectively.
